The target in the assay is T1, PLY (W433F) toxoid (Streptococcus pneumoniae, UniProt P0C2J9 2-471).
T1 construct: also called Pdb PLY (W433F); Pdb (W433F)
As to the kind of experiment: immunofluorescence co-localization in human DCs.

B1: Mannose receptor C type 1 on human monocyte-derived dendritic cells (receptor)
chain: LLDTRQFLIYNEDHKRCVDAVSPSAVQTAACNQDAESQKFRWVSESQIMSVAFKLCLGVPSKTDWVAITLYACDSKSEFQKWECKNDTLLGIKGEDLFFNYGNRQEKNIMLYKGSGLWSRWKIYGTTDNLCSRGYEAMYTLLGNANGATCAFPFKFENKWYADCTSAGRSDGWLWCGTTTDYDTDKLFGYCPLKFEGSESLWNKDPLTSVSYQINSKSALTWHQARKSCQQQNAELLSITEIHEQTYLTGLTSSLTSGLWIGLNSLSFNSGWQWSDRSPFRYLNWLPGSPSAEPGKSCVSLNPGKNAKWENLECVQKLGYICKKGNTTLNSFVIPSESDVPTHCPSQWWPYAGHCYKIHRDEKKIQRDALTTCRKEGGDLTSIHTIEELDFIISQLGYEPNDELWIGLNDIKIQMYFEWSDGTPVTFTKWLRGEPSHENNRQEDCVVMKGKDGYWADRGCEWPLGYICKMKSRSQGPEIVEVEKGCRKGWKKHHFYCYMIGHTLSTFAEANQTCNNENAYLTTIEDRYEQAFLTSFVGLRPEKYFWTGLSDIQTKGTFQWTIEEEVRFTHWNSDMPGRKPGCVAMRTGIAGGLWDVLKCDEKAKFVCKHWAEGVTHPPKPTTTPEPKCPEDWGASSRTSLCFKLYAKGKHEKKTWFESRDFCRALGGDLASINNKEEQQTIWRLITASGSYHKLFWLGLTYGSPSEGFTWSDGSPVSYENWAYGEPNNYQNVEYCGELKGDPTMSWNDINCEHLNNWICQIQKGQTPKPEPTPAPQDNPPVTEDGWVIYKDYQYYFSKEKETMDNARAFCKRNFGDLVSIQSESEKKFLWKYVNRNDAQSAYFIGLLISLDKKFAWMDGSKVDYVSWATGEPNFANEDENCVTMYSNSGFWNDINCGYPNAFICQRHNSSINATTVMPTMPSVPSGCKEGWNFYSNKCFKIFGFMEEERKNWQEARKACIGFGGNLVSIQNEKEQAFLTYHMKDSTFSAWTGLNDVNSEHTFLWTDGRGVHYTNWGKGYPGGRRSSLSYEDADCVVIIGGASNEAGKWMDDTCDSKRGYICQTRSDPSLTNPPATIQTDGFVKYGKSSYSLMRQKFQWHEAETYCKLHNSLIASILDPYSNAFAWLQMETSNERVWIALNSNLTDNQYTWTDKWRVRYTNWAADEPKLKSACVYLDLDGYWKTAHCNESFYFLCKRSDEIPATEPPQLPGRCPESDHTAWIPFHGHCYYIESSYTRNWGQASLECLRMGSSLVSIESAAESSFLSYRVEPLKSKTNFWIGLFRNVEGTWLWINNSPVSFVNWNTGDPSGERNDCVALHASSGFWSNIHCSSYKGYICKRPKIIDAKPTHELLTTKADTRKMDPSKPSSNVAGVVIIVILLILTGAGLAAYFFYKKRRVHLPQEGAFENTLYFNSQSSPGTSDMKDLVGNIEQNEHSVI
notes: also called MRC-1
Regarding B1, the binding result was “no binding (tested: 0.2 µg/ml)”.

Source of the values: patent US20230365647A1 (published 2023).
